Legend:
[1] = Phase 3 safety: TEAEs and tolerability, OAKS and DERBY; format: in vivo, human; conditions: for Endophthalmitis (serious ocular TEAE), % / Endophthalmitis (serious ocular TEAE), M (number of events): infectious and non-infectious
Procedure: All randomized subjects returned every month to the clinical site for assessments and additional pegcetacoplan or sham injections according to their randomization scheme until Month 12. From Month 12 onwards, subjects return to the clinical site based on their randomized treatment schedule (monthly or EOM) and follow the treatment regimen and assessments outlined in the Visit Schedule until Month 24. Safety was assessed throughout the study by a number of evaluations including: monitoring of AEs, preinjection and postinjection monitoring, blood and urine samples collected, physical examination, vital signs, and follow-up phone calls. Blood samples were also be collected for anti-therapeutic antibodies, genotyping, and clinical repository (if the subject consented to this portion).
Safety endpoints included incidence and severity of ocular and systemic treatment-emergent adverse events; incidence of ADA directed against pegcetacoplan peptide or PEG; incidence of new active CNV in the study eye; incidence of new onset of subclinical CNV in the study eye; incidence of subjects who lost letters based on NL-BCVA categories (≥15, ≥15-<30, ≥30 ETDRS letters); change/shift from baseline in clinical labs and incidence of abnormal lab values; change from baseline in vital signs and incidence of abnormal vital sign results; shift from baseline in ocular examination assessments including slit-lamp examination and indirect ophthalmoscopy; change from baseline in Intra Ocular Pressure (IOP) and incidence of IOP above specified thresholds; and change/shift from baseline in ocular imaging assessments (including specular microscopy; select sites).
The Safety set consisted of all subjects randomized who received at least one injection of pegcetacoplan or sham. Subjects were analyzed according to the actual treatment received. […] This population was used for all safety analyses.

[2] = test system: geographic atrophy (GA) secondary to age-related macular degeneration (AMD); assay: Post-hoc analysis of time to foveal light insensitivity, 4 central points of MAIA grid, OAKS study; format: in vivo, human
Procedure: This Example describes a post-hoc analysis of results from the OAKS study described in Example 1 that was performed in order to assess the effect of pegcetacoplan monthly (PM) or every other month (PEOM) vs sham treatment in delaying occurrence of foveal insensitivity measured by the 4 most centrally located stimulus points of the MAcular Integrity Assessment (MAIA) grid. Absolute scotomatous points of −1 dB were considered present when a reaction was not evoked by the brightest possible light stimulus.
Light insensitivity was defined as absence of response to −1 dB at the stimulus point. For the time-to-event analysis, a foveal light insensitivity event was defined as the first light insensitivity (−1 dB) occurring at all 4 central stimuli. Events were measured at the exact date of a patient visit and depicted via Kaplan-Meier plots. A Cox proportional hazards model was applied factoring treatment, choroidal neovascularisation in the fellow eye, baseline GA lesion area, and baseline number of central 4 scotomatous points (categorical). Hazard ratios (HRs) of PM and PEOM were estimated.

[3] = DERBY, PEOM (N = 208), 24 months
[4] = OAKS, PEOM (N = 212), 24 months

## Poly(oxy-1,2-ethanediyl), α-hydro-ω-hydroxy-, 15,15′-diester with N-acetyl-L-isoleucyl-L-cysteinyl-L-valyl-1-methyl-L-tryptophyl-L-glutaminyl-L-α-aspartyl-L-tryptophylglycyl-L-alanyl-L-histidyl-L-arginyl-L-cysteinyl-L-threonyl-2-[2-(2-aminoethoxy)ethoxy]acetyl-N^6-carboxy-L-lysinamide cyclic (2->12)-(disulfide) [pegcetacoplan]
[1]; [3]
  All TEAEs, %: (86.5%)
  Iridocyclitis (serious ocular TEAE), %: 0.5%
  Iridocyclitis (serious ocular TEAE), M (number of events): 1 M
  Non-ocular TEAEs, patients, %: (68.3%)
  Ocular TEAEs in study eye, patients, %: (51.9%)
  Serious ocular TEAEs in the study eye, %: 1.0%
  Serious ocular TEAEs in the study eye, M (number of events): 4 M
  Uveitis (serious ocular TEAE), %: 1.0%
  Uveitis (serious ocular TEAE), M (number of events): 2 M
  Visual acuity reduced (serious ocular TEAE), %: 0.5%
  Visual acuity reduced (serious ocular TEAE), M (number of events): 1 M
[1]; DERBY, PM (N = 206), 24 months
  All TEAEs, %: (86.4%)
  Non-ocular TEAEs, patients, %: (79.1%)
  Ocular TEAEs in study eye, patients, %: (60.7%)
  Optic ischemic neuropathy (serious ocular TEAE), %: 0.5%
  Optic ischemic neuropathy (serious ocular TEAE), M (number of events): 1 M
  Retinal tear (serious ocular TEAE), %: 0.5%
  Retinal tear (serious ocular TEAE), M (number of events): 1 M
  Serious ocular TEAEs in the study eye, %: 1.9%
  Serious ocular TEAEs in the study eye, M (number of events): 4 M
  Vitritis (serious ocular TEAE), %: 1.0%
  Vitritis (serious ocular TEAE), M (number of events): 2 M
[1]; [4]
  All TEAEs, %: (88.2%)
  Non-ocular TEAEs, patients, %: (77.8%)
  Ocular TEAEs in study eye, patients, %: (58.0%)
  Retinal detachment (serious ocular TEAE), %: 0.5%
  Retinal detachment (serious ocular TEAE), M (number of events): 1 M
  Serious ocular TEAEs in the study eye, %: 1.9%
  Serious ocular TEAEs in the study eye, M (number of events): 4 M
  Endophthalmitis (serious ocular TEAE), %: 1.4%
  Endophthalmitis (serious ocular TEAE), M (number of events): 3 M
[1]; OAKS, PM (N = 213), 24 months
  All TEAEs, %: (90.1%)
  Hyphema (serious ocular TEAE), %: 0.5%
  Hyphema (serious ocular TEAE), M (number of events): 1 M
  Non-ocular TEAEs, patients, %: (81.7%)
  Ocular TEAEs in study eye, patients, %: (62.4%)
  Optic ischemic neuropathy (serious ocular TEAE), %: 0.9%
  Optic ischemic neuropathy (serious ocular TEAE), M (number of events): 2 M
  Papilledema (serious ocular TEAE), %: 0.5%
  Papilledema (serious ocular TEAE), M (number of events): 1 M
  Retinal detachment (serious ocular TEAE), %: 0.5%
  Retinal detachment (serious ocular TEAE), M (number of events): 1 M
  Serious ocular TEAEs in the study eye, %: 2.3%
  Serious ocular TEAEs in the study eye, M (number of events): 7 M
  Endophthalmitis (serious ocular TEAE), %: 0.9%
  Endophthalmitis (serious ocular TEAE), M (number of events): 2 M
[1]; both Phase 3 studies
  tolerability: well tolerated
[2]; PEOM, 95% CI: 0.45, 0.92, p=0.0164
  HR, occurrence of foveal light insensitivity vs sham: 0.64
[2]; PEOM, n=152, 24 months
  Conversion of all 4 central points to scotoma in the study eye, patients: 59 patients
  Conversion of all 4 central points to scotoma in the study eye, percent of patients: 38.8%
[2]; PM and PEOM, twenty-four-month data
  onset of foveal light insensitivity / loss of foveal light sensitivity: Meaningful delays in loss of foveal light sensitivity
[2]; PM, 95% CI: 0.46, 0.96, p=0.0282
  HR, occurrence of foveal light insensitivity vs sham: 0.66
[2]; PM, n=155, 24 months
  Conversion of all 4 central points to scotoma in the study eye, patients: 54 patients
  Conversion of all 4 central points to scotoma in the study eye, percent of patients: 34.8%

Reference: patent US20260335397A1, “TREATMENT OF GEOGRAPHIC ATROPHY” (Apellis Pharmaceuticals, Inc., priority 2022, published 2026)
